Common to all, as to assay: SPR
One assay deals with T1, integrin αvβ3 protein (UniProt P06756 31-1048; P05106 27-718).
T1 chain 1: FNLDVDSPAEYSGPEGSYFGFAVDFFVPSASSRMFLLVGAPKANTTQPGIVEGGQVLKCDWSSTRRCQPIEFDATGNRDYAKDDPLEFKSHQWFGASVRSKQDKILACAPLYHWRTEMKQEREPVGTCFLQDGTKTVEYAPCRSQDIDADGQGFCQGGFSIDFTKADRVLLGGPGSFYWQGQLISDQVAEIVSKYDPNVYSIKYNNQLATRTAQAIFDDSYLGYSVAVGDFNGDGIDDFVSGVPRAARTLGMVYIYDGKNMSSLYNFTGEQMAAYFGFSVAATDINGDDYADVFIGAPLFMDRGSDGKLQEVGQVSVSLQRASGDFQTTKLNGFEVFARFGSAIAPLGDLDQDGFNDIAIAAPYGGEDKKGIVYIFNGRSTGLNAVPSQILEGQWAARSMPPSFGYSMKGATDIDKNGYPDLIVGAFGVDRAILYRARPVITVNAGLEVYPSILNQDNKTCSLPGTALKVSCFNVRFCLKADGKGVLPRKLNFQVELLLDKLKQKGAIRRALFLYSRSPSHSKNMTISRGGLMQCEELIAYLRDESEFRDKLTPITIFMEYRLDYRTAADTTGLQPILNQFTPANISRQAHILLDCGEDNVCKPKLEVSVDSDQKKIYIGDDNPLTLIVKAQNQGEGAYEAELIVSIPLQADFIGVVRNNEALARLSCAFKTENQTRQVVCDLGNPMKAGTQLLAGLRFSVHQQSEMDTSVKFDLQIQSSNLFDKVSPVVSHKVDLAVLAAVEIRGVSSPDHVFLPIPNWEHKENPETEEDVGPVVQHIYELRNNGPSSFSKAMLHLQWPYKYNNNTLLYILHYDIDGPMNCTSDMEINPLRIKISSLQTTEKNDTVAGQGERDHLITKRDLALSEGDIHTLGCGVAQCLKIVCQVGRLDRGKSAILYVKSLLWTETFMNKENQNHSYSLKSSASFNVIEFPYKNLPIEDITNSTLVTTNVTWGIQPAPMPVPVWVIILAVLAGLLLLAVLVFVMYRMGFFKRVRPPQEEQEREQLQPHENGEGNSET
T1 chain 2: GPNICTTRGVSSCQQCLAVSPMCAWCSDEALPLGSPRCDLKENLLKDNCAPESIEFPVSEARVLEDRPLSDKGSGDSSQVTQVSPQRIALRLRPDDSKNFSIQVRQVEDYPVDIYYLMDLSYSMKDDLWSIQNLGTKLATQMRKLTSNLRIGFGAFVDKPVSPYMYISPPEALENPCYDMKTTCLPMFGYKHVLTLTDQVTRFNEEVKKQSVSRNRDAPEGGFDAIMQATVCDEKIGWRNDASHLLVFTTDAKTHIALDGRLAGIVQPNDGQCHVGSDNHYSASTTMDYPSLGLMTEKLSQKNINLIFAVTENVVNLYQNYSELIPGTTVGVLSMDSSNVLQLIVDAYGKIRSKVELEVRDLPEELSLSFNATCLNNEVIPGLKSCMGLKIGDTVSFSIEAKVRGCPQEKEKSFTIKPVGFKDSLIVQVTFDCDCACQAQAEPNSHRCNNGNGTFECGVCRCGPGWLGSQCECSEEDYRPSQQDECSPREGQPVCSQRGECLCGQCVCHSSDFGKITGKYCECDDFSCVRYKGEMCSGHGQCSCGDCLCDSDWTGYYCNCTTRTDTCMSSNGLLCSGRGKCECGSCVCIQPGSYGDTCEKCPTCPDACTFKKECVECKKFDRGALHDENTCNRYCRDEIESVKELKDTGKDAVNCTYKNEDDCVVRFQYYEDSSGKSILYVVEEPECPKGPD

Assay [1] deals with human recombinant TLR2 protein (human, UniProt O60603 21-588).
Chain of human recombinant TLR2 protein (O60603 21-588): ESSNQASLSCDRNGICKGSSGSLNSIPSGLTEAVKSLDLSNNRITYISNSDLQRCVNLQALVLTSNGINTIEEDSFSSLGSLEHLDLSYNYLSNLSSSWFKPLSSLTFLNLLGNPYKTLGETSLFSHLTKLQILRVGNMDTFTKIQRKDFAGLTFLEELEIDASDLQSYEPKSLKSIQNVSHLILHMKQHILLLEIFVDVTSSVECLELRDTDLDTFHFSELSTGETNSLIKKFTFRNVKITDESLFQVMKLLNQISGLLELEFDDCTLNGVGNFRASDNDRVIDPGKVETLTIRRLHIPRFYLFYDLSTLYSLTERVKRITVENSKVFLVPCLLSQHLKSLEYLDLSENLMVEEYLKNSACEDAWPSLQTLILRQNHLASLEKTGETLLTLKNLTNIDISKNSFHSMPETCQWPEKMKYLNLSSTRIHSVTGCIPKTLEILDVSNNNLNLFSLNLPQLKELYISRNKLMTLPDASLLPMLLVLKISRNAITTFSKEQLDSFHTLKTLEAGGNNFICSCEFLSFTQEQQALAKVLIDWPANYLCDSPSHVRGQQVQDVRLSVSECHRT
Assay [2] addresses human recombinant TLR4 protein (without MD2) (human, UniProt O00206 24-631).

Chain of human recombinant TLR4 protein (without MD2) (O00206 24-631): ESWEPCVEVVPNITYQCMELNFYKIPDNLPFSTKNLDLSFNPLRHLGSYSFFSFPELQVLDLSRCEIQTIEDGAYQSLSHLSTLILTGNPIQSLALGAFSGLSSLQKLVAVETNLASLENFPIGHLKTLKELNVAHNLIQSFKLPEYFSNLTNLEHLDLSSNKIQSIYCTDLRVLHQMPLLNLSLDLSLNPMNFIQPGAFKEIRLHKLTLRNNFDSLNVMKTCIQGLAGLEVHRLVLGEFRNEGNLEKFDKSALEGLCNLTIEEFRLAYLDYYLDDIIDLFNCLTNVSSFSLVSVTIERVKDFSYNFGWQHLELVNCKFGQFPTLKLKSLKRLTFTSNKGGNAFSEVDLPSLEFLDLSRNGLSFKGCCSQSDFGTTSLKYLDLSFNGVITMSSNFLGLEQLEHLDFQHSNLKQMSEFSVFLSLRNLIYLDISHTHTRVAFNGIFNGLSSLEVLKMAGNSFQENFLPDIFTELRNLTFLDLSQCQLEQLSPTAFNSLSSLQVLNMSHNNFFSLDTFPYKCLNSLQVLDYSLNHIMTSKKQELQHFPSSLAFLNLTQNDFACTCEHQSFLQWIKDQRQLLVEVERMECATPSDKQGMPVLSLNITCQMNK

B1: CCN1-WT (recombinant matricellular protein CCN1) (natural protein)
chain: TCPAACHCPLEAPKCAPGVGLVRDGCGCCKVCAKQLNEDCSKTQPCDHTKGLECNFGASSTALKGICRAQSEGRPCEYNSRIYQNGESFQPNCKHQCTCIDGAVGCIPLCPQELSLPNLGCPNPRLVKVSGQCCEEWVCDEDSIKDSLDDQDDLLGLDASEVELTRNNELIAIGKGSSLKRLPVFGTEPRVLFNPLHAHGQKCIVQTTSWSQCSKSCGTGISTRVTNDNPECRLVKETRICEVRPCGQPVYSSLKKGKKCSKTKKSPEPVRFTYAGCSSVKKYRPKYCGSCVDGRCCTPLQTRTVKMRFRCEDGEMFSKNVMMIQSCKCNYNCPHPNEASFRLYSLFNDIHKFRD
As for B1, the koff turned out to be 0.0193 s⁻¹ with integrin αvβ3 protein, 0.0146 s⁻¹ in assay [1] and 0.00288 s⁻¹ in assay [2].

Broadly, the koff is a measure of how fast the partners let go of each other.

The record behind these values is paper PMC7060279 (2020).
